Here are results for one molecule from patent US20130288923, “Nucleotide-Based Probes and Methods for the Detection and Quantification of Macromolecules and Other Analytes” (THE REGENTS OF THE UNIVERSITY OF CALIFORNIA, published 2013).

This data set has as its target TATA binding protein (TBP) (UniProt P20226 P20226:1-339). As to the kind of experiment: square wave voltammetry; nM detection in buffer and in 250 ug/mL HeLa nuclear extract. Particulars: tags: recombinantly expressed and purified (Bonham 2009); label: 5'-C6-thiol (gold electrode), internal methylene blue; double stem-loop / single stem-loop switch containing TBP recognition duplex. On the procedure: The ability of the TBP transcription factor electrochemical probe to function in HeLa nuclear cell extract was also tested (FIG. 14(b). The probe directed against TBP was titrated with its target protein against a background of 250 μg/mL crude HeLa nuclear extract (FIG. 14(b), producing a binding curve similar to that observed in buffer (FIG. 14(b). This binding curve was slightly offset from the curve obtained in buffer. Without being limited to any particular theory, a possible explanation for this shift was that this was a contribution from the endogenous TBP present in cell extract. The TBP transcription factor electrochemical probe provided the convenient quantification of transcription factors in cell extract. The sensor's response in buffer, cell extract and, finally, extract to which a large excess of TBP had been added were measured. These measurements were used to calculate the concentration of TF in the sample, C, via the following relationship: […]

Sequence of TATA binding protein (TBP) (P20226 whole entry, one chain of several): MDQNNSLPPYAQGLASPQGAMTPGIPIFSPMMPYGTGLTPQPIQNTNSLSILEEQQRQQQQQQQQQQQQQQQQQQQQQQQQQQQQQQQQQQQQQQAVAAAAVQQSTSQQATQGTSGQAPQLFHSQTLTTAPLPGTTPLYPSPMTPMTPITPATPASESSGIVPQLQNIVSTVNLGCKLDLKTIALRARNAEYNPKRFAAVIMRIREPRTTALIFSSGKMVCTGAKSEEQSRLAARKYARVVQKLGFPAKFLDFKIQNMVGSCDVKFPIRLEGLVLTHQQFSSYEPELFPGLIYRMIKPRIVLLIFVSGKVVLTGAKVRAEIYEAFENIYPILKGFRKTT

B1: TBP electrochemical probe (structured_DNA)
DNA: GAATAGGTTCCTATAAAAGGTTGGTTTTATAAACCTATCCTATTC
For B1, the binding result is reported as “binds”.
